Source: the supplement of paper PMC10724198
± gives the standard deviation of the averaged measurements.

How the values were obtained:
[1] = system: Saccharomyces cerevisiae; test: protein stability index of tFT-peptide fusion (C-terminal peptide) (PSI (0-1 scale)); higher = more stable (slower turnover)
Protocol: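 MPS profiling in S. cerevisiae of the tFT-X12 degron library: putative degron peptides plus stable controls, 12 aa, fused to the C-terminus of a sfGFP-mCherry timer. Cells are FACS-sorted into 8 mCherry/sfGFP bins and deep-sequenced. PSI runs from 0 (unstable) to 1 (stable). Backgrounds are wild type, das1Δ and doa10Δ at 30 °C, and wild type, das1Δ, cdc34-1 and cdc53-1 at 37 °C; 2-3 technical replicates each.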

[2] = system: Saccharomyces cerevisiae; test: as above; conditions: genetic background: wild type; temperature: 30 C
[3] = genetic background: cdc34-1, temperature: 37 C
[4] = genetic background: cdc53-1, temperature: 37 C
[5] = genetic background: das1 deletion, temperature: 30 C
[6] = genetic background: das1 deletion, temperature: 37 C
[7] = genetic background: doa10 deletion, temperature: 30 C
[8] = genetic background: wild type, temperature: 30 C
[9] = genetic background: wild type, temperature: 37 C
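Also: PSI is a weighted mean of sequencing reads over stability bins, variants kept only with over 10 reads, mCherry proximal and sfGFP distal, peptide attached via GGGS linker.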

| Sequence | protein stability index [1, 3] | protein stability index [1, 4] | protein stability index [1, 5] | protein stability index [1, 6] | protein stability index [1, 7] | protein stability index [1, 8] | protein stability index [1, 9] | protein stability index [2] |
| --- | --- | --- | --- | --- | --- | --- | --- | --- |
| ACCLLFSFAFTV | 0.452 ± 0.026 | 0.5103 ± 0.0014 | 0.32 ± 0.04 | 0.517 ± 0.0016 | 0.187 ± 0.0034 | 0.213 ± 0.029 | 0.4184 ± 0.0027 | 0.301 ± 0.028 |
| AFFALGSFFFLL | 0.631 ± 0.042 | 0.685 ± 0.0071 | 0.586 ± 0.039 | 0.7296 ± 0.0054 | 0.265 ± 0.0044 | 0.289 ± 0.03 | 0.519 ± 0.034 | 0.0874 ± 0.015 |
| AFRCVVLCWFLK | 0.31 ± 0.031 | 0.434 ± 0.0094 | 0.292 ± 0.038 | 0.498 ± 0.0098 | 0.268 ± 0.029 | 0.281 ± 0.014 | 0.413 ± 0.011 | 0.415 ± 0.023 |
| AFVSVHRLRLAS | 0.642 ± 0.016 | 0.724 ± 0.014 | 0.605 ± 0.017 | 0.734 ± 0.01 | 0.174 ± 0.0083 | 0.183 ± 0.037 | 0.374 ± 0.018 | 0.4053 ± 0.0023 |
| AGLAPCFLLFVC | 0.261 ± 0.027 | 0.343 ± 0.019 | 0.3 ± 0.033 | 0.44 ± 0.0063 | 0.0908 ± 0.024 | 0.0981 ± 0.021 | 0.0938 ± 0.026 | 0.133 ± 0.019 |
| AGMIKLRKKKVL | 0.6487 ± 0.003 | 0.7395 ± 0.003 | 0.634 ± 0.021 | 0.7208 ± 0.0012 | 0.208 ± 0.026 | 0.248 ± 0.041 | 0.452 ± 0.0093 | 0.417 ± 0.042 |
| AGSPPSRPPWLP | 0.675 ± 0.047 | 0.7369 ± 0.0062 | 0.679 ± 0.051 | 0.759 ± 0.024 | 0.679 ± 0.034 | 0.678 ± 0.021 | 0.719 ± 0.042 | 0.506 ± 0.018 |
| AGVRLIFLFWGF | 0.521 ± 0.05 | 0.608 ± 0.027 | 0.43 ± 0.037 | 0.6496 ± 0.0056 | 0.444 ± 0.028 | 0.407 ± 0.054 | 0.621 ± 0.036 | 0.4945 ± 0.0016 |
| AHSFKCVGVAVR | 0.4628 ± 0.00085 | 0.504 ± 0.01 | 0.332 ± 0.024 | 0.5469 ± 0.0017 | 0.309 ± 0.004 | 0.347 ± 0.032 | 0.544 ± 0.0072 | 0.3246 ± 0.0014 |
| AIREVQYSFFPS | 0.681 ± 0.041 | 0.755 ± 0.018 | 0.652 ± 0.0074 | 0.7527 ± 0.0042 | 0.6445 ± 0.0018 | 0.66 ± 0.012 | 0.723 ± 0.016 | 0.715 ± 0.021 |
| ALERCFIRRVTV | 0.513 ± 0.013 | 0.582 ± 0.024 | 0.415 ± 0.017 | 0.593 ± 0.021 | 0.322 ± 0.024 | 0.394 ± 0.016 | 0.532 ± 0.01 | 0.477 ± 0.069 |
| ALVYVPACRLVV | 0.59 ± 0.049 | 0.624 ± 0.022 | 0.492 ± 0.021 | 0.634 ± 0.024 | 0.256 ± 0.011 | 0.303 ± 0.018 | 0.481 ± 0.018 | 0.4017 ± 0.0028 |
| APCRVPVLGLVF | 0.249 ± 0.026 | 0.265 ± 0.0055 | 0.235 ± 0.036 | 0.364 ± 0.018 | 0.204 ± 0.016 | 0.257 ± 0.013 | 0.344 ± 0.025 | 0.327 ± 0.034 |
| APLPPVCPSPSL | 0.667 ± 0.081 | 0.72 ± 0.015 | 0.655 ± 0.0086 | 0.713 ± 0.019 | 0.679 ± 0.052 | 0.657 ± 0.018 | 0.72 ± 0.01 |  |
| ARRRYEVLAVLV | 0.477 ± 0.024 | 0.522 ± 0.025 | 0.459 ± 0.041 | 0.5983 ± 0.0026 | 0.135 ± 0.0081 | 0.149 ± 0.024 | 0.149 ± 0.021 | 0.227 ± 0.0072 |
| ASTGPLAAIRVY | 0.519 ± 0.0057 | 0.622 ± 0.023 | 0.396 ± 0.028 | 0.5994 ± 0.0011 | 0.377 ± 0.035 | 0.41 ± 0.019 | 0.588 ± 0.017 | 0.495 ± 0.013 |
| AVCVGILIWATV | 0.0816 ± 0.0045 | 0.0998 ± 0.009 | 0.176 ± 0.029 | 0.275 ± 0.013 | 0.142 ± 0.018 | 0.165 ± 0.025 | 0.264 ± 0.017 | 0.314 ± 0.08 |
| AVLVSGMVVWLV | 0.643 ± 0.053 | 0.709 ± 0.015 | 0.54 ± 0.025 | 0.672 ± 0.06 | 0.32 ± 0.013 | 0.357 ± 0.0096 | 0.563 ± 0.01 | 0.436 ± 0.032 |
| AVSFTLVLCSCF | 0.474 ± 0.025 | 0.489 ± 0.029 | 0.416 ± 0.039 | 0.473 ± 0.023 | 0.389 ± 0.0073 | 0.401 ± 0.019 | 0.444 ± 0.0074 | 0.449 ± 0.023 |
| AVVLLFIPRKLL | 0.472 ± 0.042 | 0.53 ± 0.034 | 0.39 ± 0.029 | 0.568 ± 0.014 | 0.148 ± 0.011 | 0.173 ± 0.021 | 0.293 ± 0.015 | 0.245 ± 0.079 |
| AVWVAVEVEAGR | 0.468 ± 0.045 | 0.498 ± 0.025 | 0.331 ± 0.026 | 0.5447 ± 0.0044 | 0.3 ± 0.009 | 0.333 ± 0.023 | 0.53 ± 0.018 | 0.436 ± 0.026 |
| AVYEGLLIRCLI | 0.4982 ± 0.0037 | 0.5271 ± 0.0033 | 0.392 ± 0.033 | 0.5549 ± 0.0045 | 0.195 ± 0.013 | 0.251 ± 0.021 | 0.392 ± 0.0068 | 0.337 ± 0.011 |
| AYFLKRSSILVR | 0.311 ± 0.05 | 0.376 ± 0.015 | 0.241 ± 0.031 | 0.439 ± 0.011 | 0.2062 ± 0.002 | 0.217 ± 0.034 | 0.395 ± 0.011 | 0.352 ± 0.017 |
| CAIHIKIQMSVE | 0.0158 ± 0.0046 | 0.0731 ± 0.0079 | 0.0577 ± 0.019 | 0.136 ± 0.031 | 0.0457 ± 0.0051 | 0.0488 ± 0.02 | 0.128 ± 0.028 | 0.0995 ± 0.011 |
| CALCIGTYIRVV | 0.495 ± 0.01 | 0.503 ± 0.014 | 0.385 ± 0.029 | 0.552 ± 0.0098 | 0.367 ± 0.029 | 0.345 ± 0.048 | 0.501 ± 0.031 | 0.451 ± 0.029 |
| CCLFFLVVFVGW | 0.167 ± 0.0038 | 0.227 ± 0.027 | 0.191 ± 0.034 | 0.335 ± 0.027 | 0.194 ± 0.029 | 0.183 ± 0.019 | 0.274 ± 0.0075 | 0.255 ± 0.021 |
| CCNVLFRVCLFL | 0.459 ± 0.0095 | 0.526 ± 0.059 | 0.405 ± 0.042 | 0.542 ± 0.022 | 0.277 ± 0.0045 | 0.304 ± 0.025 | 0.4334 ± 0.0041 | 0.353 ± 0.048 |
